Among the data in a protein production outcome set (Wang et al. 2014) are protein production values, retold here.

The data set is described as follows: label from the status in PepcDB records.
Take “MELLSIVIFGLLIVVSPSADFVLVFKNSAMHSRKAGMLTAIGIGAGVCVHISYSIIGISQLIANNAGLFSLVKYVGAAYLIYIGIAGLLSAKLTLDYGTQLIKPVENRKYIMQGFLCNVLNPKTMIFFLSVFSQLISSHSDSLAFVISYGVYIAVLHGIWFCIVAYLVTSAKATRVLKRFGHRINQACGVGLITFGVILSTND”: the protein production result was “failed”.

Consider “HPMCKEHEDEKINIYCLTCEVPTCSMCKVFGIHKACEVAPLQSVFQGQKTE”, for which the protein production result was “not failed”.

Turning to “MTIFYYSFIILALLACLTVSFRIKKQQYLILYLFVIVLLSLLAGLRYDNADYENYLEIFKNPWEVSPDKGFSAFVLIVRWFTTSPIYMFLPVAIIAVSLNISSYRKYSPYLFVSVLFYFVHSFLLKEYVQIRAGLSCAICLYAIRYIEYKSLWKYIACMVIAMSIHMSSIIFFPMFWVYYFMKNKSNSCLMYFLLLSFIIGTLYPFGQVIKAYVPFLDETSRIATYANWDQFNNEIGILTNFTTLKQIILCVLCYIYWTRLKEVISCFSVLYLAYVLSTCWLMLFNDFVIIGARMATFLSVGEPIFFAGFLCLFNKQSRILVTLFFIIISCIIMDVNLHTKNLGEFKLYPLTSLF”, the protein production result was “failed”.

“MPFNQNVSLECYNGILSMLLNGAPLADILHALVLKIEDQRLGTHASVLLLSEDGKRVLTGAAPHLPDSYNQVIHGVEIGPEVGSCGTAAYTGQRVIVEDIEHHPYWALYKSFALVHGLRACWSEPIKDTQGKVLGTFAMYYKEIKSPTVADLTLIAEAARLASLAIERSRSLEFQRLEHHHHHH”: the protein production result is on record as “not failed”.

Consider “MSDIIDEVISSFKTSSIFINREYLLPDYIPDELPHREDQIRKIASILAPLYREEKPNNIFIYGLTGTGKTAVVKFVLSKLHKKFLGKFKHVYINTRQIDTPYRVLADLLESLDVKVPFTGLSIAELYRRLVKAVRDYGSQVVIVLDEIDAFVKKYNDDILYKLSRINSEVNKSKISFIGITNDVKFVDLLDPRVKSSLSEEEIIFPPYNAEELEDILTKRAQMAFKPGVLPDNVIKLCAALAAREHGDARRALDLLRVSGEIAERMKDTKVKEEYVYMAKEEIERDRVRDIILTLPFHSKLVLMAVVSISSEENVVSTTGAVYETYLNICKKLGVEAVTQRRVSDIINELDMVGILTAKVVNRGRYGKTKEIGLAVDKNIIVRSLIESDSRFADLWS”, for which the protein production result is listed as “failed”.

In the case of “MTVITLMLVLFEVVFSVSIYRYYYNGIVQYIESHAKTSTRFFSEYNSLYFIRLQEYSGDIISSFQLEGTELQLIDRHGSVIQSSSGEKVEGKVNIPQSLLEGEMYNQVTTKGNKKQLEVLSPLIHQGQTIGVLKYTTVLTNVNKKIIEIITFTISVGIVISGVVFLISRRLANSFVEPIESIIQASSQIAEGTLKQKIKEDYPGELGDLAHSLNYMAYKIDKAEQMKNEFIASISHEIRTPLTGIKGWSETLKTVDHLTEEEIKQGMGIISGETDRLIHLVEELLDFSRLQSNHFNLYKQKVQLYDILEETIWQLTPKSEEKEIQFITTIDRMELMGDRNRLKQVFLNIVQNAIKYSHKKSTIHIEATKIEGQAVIKVRDEGIGIAKEHLPYIEQSFYQINNHAAGAGIGLAIVKKMVELHSGVLSVTSKEGIGTTILIKLPL”, the protein production entry was “failed”.

“MDPRKVNELRAFVKMCKQDPSVLHTEEMRFLREWVESMGGKVPPATQKAKSEENTKEEKPDSKKVEEDLKADEPSSEESDLEIDKEGVIEPDTDAPQEMGDENAEITEEMMDQANDKKVAAIEALNDGELQKAIDLFTDAIKLNPRLAILYAKRASVFVKLQKPNAAIRDCDRAIEINPDSAQPYKWRGKAHRLLGHWEEAAHDLALACKLDYDEDASAMLKEVQPRAQKIAEHRRKYERKREEREIKERIERVKKAREEHERAQREEEARRQSGAQYGSFPGGFPGGMPGNFPGGMPGMGGGMPGMAGMPGLNEILSDPEVLAAMQDPEVMVAFQDVAQNPANMSKYQSNPKVMNLISKLSAKFGGQA”: the protein production result was “failed”.

With “MLRVTPILLAVLYAFAMYHFSAWRTRRELDARSTELADPALKRLTDRLAAALGVARVPVHIYEIDPVNGLAAPDGRIFITRGFYRKYQSGEVTGEELTSVIAHELGHVALGHSRRRMIDFSGQNAMRTALAMLLGRFIPFFGVWIANMLTTLLAARLSRADEYEADAYAAALLTKAGIGVAPQKALFHKLDALTEQRAGVAPAWLLSHPKTAERIAALDRLEARWQAH”, the protein production entry is “failed”.

Take “MSITLLTGIGEIFLGILLNVFIGKIVKIVFKKDGTLPRVPVRFIGITLILNGVGNMVHL”: the protein production result is “failed”.

As to “MTPVQLKNYLEQLVGNQIKTSTMIWGPPGIGKSSIVAQIAEEGKLRFIDLRLSQLAPTDLRGLPVAIPTSKTKPQTGTSAWYPPEFLPKDGAGILFLDELNMAPPAMQGVAQQLILDRRVGSYEVPTDWFIWAAGNRKEDRASVFEMPAPLANRFLHLDVQPDFESFKQYALEQKYHEQVIAFLSFRPGLIHKLDLQRPAWPSPRSWAIANGLHQVNLDVSPAVGEGCAAEFSAFVQLYKDLPDLEAIFRGQGQNIGFPTEPSSGYASTIGLAVRAKDATAGVNAFHWLTDKADSEWVQLFVTDMAGQLRRAGHLGALSIMAKKEPKLKQFMQGYQELLAILEHHHHHH”, the protein production result was “not failed”.

Turning to “MERSIGFGQALKLFWKNYVNFKGRSRRSEYWFMALWNIIFMMPALILYIIGLIMTVSGAASSSEELVAIGVILLFLSICYALIYSLATLIPGWALLIRRFHDTGRTMLMPLIYLGVIVISYPVLFVVNIQDPEYNNPVYIIFFAIIFLVYIALGIYMLVICCLDSERKTNKYGASHKYGNHIKSSTNTYANQDAPIHEDTNVKHVNSEENAFSEEVNTSDENATKKDDNFKY”, the protein production result is “failed”.

Take “MIKSSSKIGLAFFVRPQFDVDLAKNFFNKVQDSLKEAGIATQVFELPVSTDAEALSLAESVNSHQDLHGLIVVQGTFCDASLILNLASNINLPIMIWATKEQPTGGRLSLNSFCGLNLGAHTLVNAGIKFKGVYGSPGSPAVIKKVTSFARAAGAVKWLKGKRIGLFGHRPSGYYPSNFNEILLRKQFGITVEYLSLSEVFSLAQKMEIKDIQPFINTLVGVEGLEMVSTSKSVQAYLALKELIAQKALDAVAVECWPEFMAGFGGAVCYALSRLNDEGIVAACEADVNGAVTMLLGSYLSSQANFIADLVGAEEEQNQLIFWHCGNGPLSLAAPGTNPVAGVHPNRKTPLAMYFPLKGGPVTVSRLSSDHNGNLRLFLGSGTGIETDLLYSGNSLPIQISGSVEETLDTILCEGIEHHYIVTYGDLTSEFREIAELLGLRMITFLEHHHHHH”: the protein production entry is listed as “failed”.

On to “WRQRDEAEFTGVDDIPVRFVRFRAQHHDRVVVICPGRIESYVKYAELAYDLFHLGFDVLIIDHRGQGRSGRLLADPHLGHVNRFNDYVDDLAAFWQQEVQPGPWRKRYILAHSMGGAISTLFLQRHPGVCDAIALTAPMFGIVIRMPSFMARQILNWAEAHPRFRDGYAIGTGRWRALPFAINVLTHSRQRYRRNLRFYADDPTIRVGGPTYHWVRESILAGEQVLAGAGDDATPTLLLQAEEERVVDNRMHDRFCELRTAAGHPVEGGRPLVIKGAYHEILFEKDAMRSVALHAIVDFFNRHN”, for which the protein production entry is on record as “failed”.

Take “MKVPKYQLIQNDLRQQIVSGKFENGDKFYTESELTKLFNVSSITVIRAVNELVKDGYLVRQQGKGTFVSRSRKGRLVEFSDIEIFPMDKDKVTVLSCEKGNKPDILEKLNLDKNEFYYKIVRVRAAEDTPYIFHNSYIPQRYIQNPDAPLEHYQSIYQRFKLDYNIHMSEEPFVETNEIVSPCPKEVATHLKLKATEPAVLQNKTTTNSTSGEVMEYTETYKHWKYYKFEITANHR”: the protein production result is given as “not failed”.

For the sequence “IKVGKAKLLNQVLVNLPTSISQQTIAETDGDSAGSDSFPVGRTHHRWYLCHFGQSLIHVIQVVIGYFIMLAVMSYNTWIFLGVVLGSAVGYYLAYPLLSTA”, the protein production entry was “not failed”.

On to “MRVSVVIPARNEEAYLPSALEAVLAQTLPPFEVIVVDNASTDRTREVAEALGARVVFCGRRGVAYARQAGLLAARGEWVAMTDADSLPTPRWLERLAHKAPGAVAVYGPLRFYGVSPLEAALSEWGYRAFLNLMALLGRPNLAGANMMVLKEAALRVGGFPEVEAREDVLLGWRLKALGPVRYAGDALVLTSARRLQGGWGRFLLRQARNLLGDPRGYFGEAGERERLEHHHHHH”, for which the protein production result was “not failed”.

For “MVKHIVLFKLRDDVPVEEKLVVMNSFKEAIEALPAKISVIRKIEVGLNMNPGETWNIALYSEFDNLDDVKFYATHPEHVAAGKILAETKESRACVDYEF”, the protein production result is “not failed”.

In the case of “SAQSLSSEPDILFLDGWQLRYQAFAARADDPRPPVLLLGGAFQSFRSFTGEVSELLAEHPVILLDLPSQGGNLQLAAELSLEDLADLIAAFAEQLGLPPLMPIGLSYGSALAALFAARHPRRCARLLLAGITAFGRPGARLLLEEALARLDEGDQSAFAHGVLTGLINPLQLERTGVSPVFRKAMLRQLQRLTAAEIERYRQNSRRLLAFGGFERHPTCPTLVLAGEYDHFTQPWEHAVFAHACGNAEFALIHDADHLAQFERREACARLYGPFLRG”, the protein production entry was “failed”.

As for “MEEVLPNVYLIDTLKYVEPGVISAYAVVHERAAIIDPGTAKGAEIILDEIDRSWNVEYICPTHIHIDHGGGAARLAKALDAKIIVHPRGVKHVVNPEKLWEASKAVLGEVAEIYGKPESIDESKVIAVEDEQEFDLGGERLKVFHAPGHAPHMLVYYLTNSKVLFPADAVGMCFGGVVFPLTPPPFDADAALKTLKRLKGLKVDYVAFTHYGVVEGDWPIAKSYEKVKSWLEIAKEVANANGTVEEFVGRLRKEDEDVEKLFNVLGSKPVALSFIYTSATGMLDAARRMIE”, the protein production result was “failed”.

On to “MSEFRLTQISDTHLGRRFPGLIANFHRVCEHIDADRPDLVINTGDVSFDGPTSRDDVVFAKGLHDALPVTCRYLPGNHDIGDNPTAIGPAPKPPVSEAYRQQFRDIIGEDHWSFEAAGWCFIGLNTLVMNSGLAFEAAQFDWLTQEIARTNGRPVALFLHKPVFLNLPDDPETPETSIRYVPQPARARLIEMFARVDLRLIASGHVHQRRDFTFRHTRHVWAPSVGFKINDQRQDRIAIKETGLVEYRFRGDSLEVRHLRAAGQIDIDIEEVLLQMGGEH”, for which the protein production result is “failed”.

As to “MKPRNIAIACGVAGVAVSLAAATGIVYHKQIKSAASLKRLTGYADGYDLYAIDIAYDYDLNRIIAAGVRDDQAYIDAVVAQVLPGVPVHVQAPQFACSAFVAVDAEGRVRTGRNYDFKDDTSALLVRNHPRGGYASIGFAALNNLGDNTPLDSVAGRAAALMGPFGQLDGVNECGVSIAVLTLDSKPCDQDAQRPVINTSLAIRLVLDRAATTQEAVDLLSAYDMHAMAGRDYHFFINDAAGDARVVEWDPRDPDRAFKATPVRQVTNFYACYGDEVLPNQKNGELGHGKERAIAIADVLDAHVGAQDEAVAWKALRAAAQEPNPKDITSNTQWSVVFDNTEPAAAITLRRHWGDVDAFAL”, the protein production result is reported as “failed”.

Consider “FHSYTGELKIGASVASGQQVLRPALGKFMRQYPDLKVQLNLVNRRVDFIEEGFDVVIRIGQLNDSMLIAKKLGAINRKIFASPSYLAKQGNPDKVEQLTEHQLLIMNP”, for which the protein production result was “failed”.

For the sequence “MSGPTWLPPKQPEPSRVPQGRALPRGTLGPPTAHGATLQPHPRVNFCPLPPEQCYQPPGVPEDRGPTWVGSHGAAQRLQGLPPDRGVIHPGSLDAEIDSLTSMLADLDGSRSHAPRRPDRQAFEAPPPHAYRGGSLKPSGGAVPAPMLPASPYGGPTPASYATASTPAGPAFPVQVKVAQPVRGCGLPRRGASQASGPLPGPHFPLTGRGEVWGAGYRSHREPGPGVKEGAAGVHNPAGGGRRGGHEPQGPLSQPPEEELERLTKKLVHDMNHPPSGEYFGRCGGCGDDVVGDGAGVVALDRVFHTGCFVCSTCRAQLRGQHFYAVERRAYCESCYVATLEKCSTCSEPILDRILRAMGKAYHPGCFTCVVCHRGLDGIPFTVDATSQIHCIEDFHRKFAPRCSVCGGAIMPEPGQEETVRIVALDRSFHIGCYKCEECGLLLSSEGECQGCYPLDGHILCKACSAWRIQELSATVTTDC”, the protein production result is “failed”.
